{"source": "patent US20230159612A1", "about": "(MEDIGENE IMMUNOTHERAPIES, published 2023)", "key": {"[1]": {"target": "T1, MAGE-A4GVY-MHC-multimer (MAGE-A4 230-239, …; immuneAware) (human)", "T1 construct": "Bought reagent (immuneAware); also called GVY-specific tetramer", "assay": "flow cytometry, multimer staining of TCR-transduced CD3+ T cells, gated on live CD3+ cells", "excerpt": "After expansion of these cells, they were stained with a MAGE-A4GVY-MHC-multimer and antibody against CD3 and analyzed by flow cytometry. Populations were gated on live CD3+ cells and multimer staining.\nAfter expansion, the transduced T cells were stained with a MAGE-A4GVY-MHC-multimer (MAGE-A4²³⁰⁻²³⁹, […]; immuneAware) and antibodies against CD3. Populations were gated on live CD3⁺ cells and multimer staining. All MAGE-A4-TCR-transgenic T cell populations bound the MAGE-A4GVY-MHC-multimer very efficiently (>70%)."}, "[2]": {"target": "T1, MAGE-A4GVY-MHC-multimer (MAGE-A4 …)", "assay": "flow cytometry, multimer staining of TCR-transduced CD8+ T cells, gated on live CD8+/mCb+ cells", "excerpt": "Transduced CD8+ T cells were enriched by FACS using the murine constant beta region as a marker for transduction. After expansion of these cells, they were stained with an MAGE-A4GVY-MHC-multimer and antibodies against CD8 and the murine constant beta region (mmCb) and analyzed by flow cytometry. Populations were gated on live CD8+/mCb+ cells and staining of multimer/CD8 is shown.\nThey were stained with a MAGE-A4GVY-MHC-multimer (MAGE-A4²³⁰⁻²³⁹, […]; immuneAware) and antibodies against CD8 and the murine constant beta region. All MAGE-A4-TCR-transgenic T cell populations bound the MAGE-A4GVY-MHC-multimer very efficiently (>70%)."}}}
{"binder": "MAGE-A4 TCR-5 (fully human TCR) (TCR, no leader limits stated) TCR alpha: AQKITQTQPGMFVQEKEAVTLDCTYDTSDPSYGLFWYKQPSSGEMIFLIYQGSYDQQNATEGRYSLNFQKARKSANLVISASQLGDSAMYFCAMSGGYTGGFKTIFGAGTRLFVKANIQNPDPAVYQLRDSKSSDKSVCLFTDFDSQTNVSQSKDSDVYITDKTVLDMRSMDFKSNSAVAWSNKSDFACANAFNNSIIPEDTFFPSPESSCDVKLVEKSFETDTNLNFQNLSVIGFRILLLKVAGFNLLMTLRLWSS TCR beta: DSGVTQTPKHLITATGQRVTLRCSPRSGDLSVYWYQQSLDQGLQFLIQYYNGEERAKGNILERFSAQQFPDLHSELNLSSLELGDSALYFCASSGGDGDEQFFGPGTRLTVLEDLKNVFPPEVAVFEPSEAEISHTQKATLVCLATGFYPDHVELSWWVNGKEVHSGVSTDPQPLKEQPALNDSRYCLSSRLRVSATFWQNPRNHFRCQVQFYGLSENDEWTQDRAKPVTQIVSAEAWGRADCGFTSESYQQGVLSATILYEILLGKATLYAVLVSALVLMAMVKRKDSRG", "values": [{"measurement": "percent of cells stained by the multimer", "setting": "[1]", "value": "> 70", "unit": "%"}]}
{"binder": "MAGE-A4 TCR-6 (fully human TCR) (TCR, no leader limits stated) TCR alpha: GENVEQHPSTLSVQEGDSAVIKCTYSDSASNYFPWYKQELGKRPQLIIDIRSNVGEKKDQRIAVTLNKTAKHFSLHITETQPEDSAVYFCAASRGTGFQKLVFGTGTRLLVSPNIQNPDPAVYQLRDSKSSDKSVCLFTDFDSQTNVSQSKDSDVYITDKTVLDMRSMDFKSNSAVAWSNKSDFACANAFNNSIIPEDTFFPSPESSCDVKLVEKSFETDTNLNFQNLSVIGFRILLLKVAGFNLLMTLRLWSS TCR beta: DTAVSQTPKYLVTQMGNDKSIKCEQNLGHDTMYWYKQDSKKFLKIMFSYNNKELIINETVPNRFSPKSPDKAHLNLHINSLELGDSAVYFCASSQFWDGAGDEQYFGPGTRLTVTEDLNKVFPPEVAVFEPSEAEISHTQKATLVCLATGFFPDHVELSWWVNGKEVHSGVSTDPQPLKEQPALNDSRYCLSSRLRVSATFWQNPRNHFRCQVQFYGLSENDEWTQDRAKPVTQIVSAEAWGRADCGFTSVSYQQGVLSATILYEILLGKATLYAVLVSALVLMAMVKRKD", "values": [{"measurement": "percent of cells stained by the multimer", "setting": "[1]", "value": "> 70", "unit": "%"}]}
{"binder": "TCR-3 containing murinized Cα and Cβ regions (TCR, Expressed on the surface of retrovirally transduced human CD8+ T cells; Human variable regions with murine constant regions; also called MAGE-A4-TCR) TCR alpha: GENVEQHPSTLSVQEGDSAVIKCTYSDSASNYFPWYKQELGKRPQLIIDIRSNVGEKKDQRIAVTLNKTAKHFSLHITETQPEDSAVYFCAASRGTGFQKLVFGTGTRLLVSPNIQNPEPAVYQLKDPRSQDSTLCLFTDFDSQINVPKTMESGTFITDKTVLDMKAMDSKSNGAIAWSNQTSFTCQDIFKETNATYPSSDVPCDATLTEKSFETDMNLNFQNLSVMGLRILLLKVAGFNLLMTLRLWSS TCR beta: DTAVSQTPKYLVTQMGNDKSIKCEQNLGHDTMYWYKQDSKKFLKIMFSYNNKELIINETVPNRFSPKSPDKAHLNLHINSLELGDSAVYFCASSQFWDGAGDEQYFGPGTRLTVTEDLRNVTPPKVTLFEPSKAEIANKQKATLVCLARGFFPDHVELSWWVNGKEVHSGVSTDPQAYKESNYSYCLSSRLRVSATFWHNPRNHFRCQVQFHGLSEEDKWPEGSPKPVTQNISAEAWGRADCGITSASYHQGVLSATILYEILLGKATLYAVLVSGLVLMAMVKKKNS", "values": [{"measurement": "percent of cells stained by the multimer", "setting": "[2]", "value": "> 70", "unit": "%"}]}
{"binder": "MAGE-A4 TCR-4 (fully human TCR) (TCR, no leader limits stated) TCR alpha: AQKITQTQPGMFVQEKEAVTLDCTYDTSDQSYGLFWYKQPSSGEMIFLIYQGSYDEQNATEGRYSLNFQKARKSANLVISASQLGDSAMYFCAMSGDSAGNMLTFGGGTRLMVKPHIQNPDPAVYQLRDSKSSDKSVCLFTDFDSQTNVSQSKDSDVYITDKTVLDMRSMDFKSNSAVAWSNKSDFACANAFNNSIIPEDTFFPSPESSCDVKLVEKSFETDTNLNFQNLSVIGFRILLLKVAGFNLLMTLRLWSS TCR beta: not shown", "values": [{"measurement": "percent of cells stained by the multimer", "setting": "[1]", "value": "> 70", "unit": "%"}]}
{"binder": "TCR-1 containing murinized Cα and Cβ regions (TCR, Expressed on the surface of retrovirally transduced human CD8+ T cells; Human variable regions with murine constant regions; also called MAGE-A4-TCR) TCR alpha: AQKITQTQPGMFVQEKEAVTLDCTYDTSDQSYGLFWYKQPSSGEMIFLIYQGSYDEQNATEGRYSLNFQKARKSANLVISASQLGDSAMYFCAMSGDSAGNMLTFGGGTRLMVKPHIQNPEPAVYQLKDPRSQDSTLCLFTDFDSQINVPKTMESGTFITDKTVLDMKAMDSKSNGAIAWSNQTSFTCQDIFKETNATYPSSDVPCDATLTEKSFETDMNLNFQNLSVMGLRILLLKVAGFNLLMTLRLWSS TCR beta: not shown", "values": [{"measurement": "percent of cells stained by the multimer", "setting": "[2]", "value": "> 70", "unit": "%"}]}
{"binder": "TCR-2 containing murinized Cα and Cβ regions (TCR, Expressed on the surface of retrovirally transduced human CD8+ T cells; Human variable regions with murine constant regions; also called MAGE-A4-TCR) TCR alpha: AQKITQTQPGMFVQEKEAVTLDCTYDTSDPSYGLFWYKQPSSGEMIFLIYQGSYDQQNATEGRYSLNFQKARKSANLVISASQLGDSAMYFCAMSGGYTGGFKTIFGAGTRLFVKANIQNPEPAVYQLKDPRSQDSTLCLFTDFDSQINVPKTMESGTFITDKTVLDMKAMDSKSNGAIAWSNQTSFTCQDIFKETNATYPSSDVPCDATLTEKSFETDMNLNFQNLSVMGLRILLLKVAGFNLLMTLRLWSS TCR beta: DSGVTQTPKHLITATGQRVTLRCSPRSGDLSVYWYQQSLDQGLQFLIQYYNGEERAKGNILERFSAQQFPDLHSELNLSSLELGDSALYFCASSGGDGDEQFFGPGTRLTVLEDLRNVTPPKVTLFEPSKAEIANKQKATLVCLARGFFPDHVELSWWVNGKEVHSGVSTDPQAYKESNYSYCLSSRLRVSATFWHNPRNHFRCQVQFHGLSEEDKWPEGSPKPVTQNISAEAWGRADCGITSASYHQGVLSATILYEILLGKATLYAVLVSGLVLMAMVKKKNS", "values": [{"measurement": "percent of cells stained by the multimer", "setting": "[2]", "value": "> 70", "unit": "%"}]}
